Measured values as given in patent EP4725963A1 (Jiangsu Hengrui Pharmaceuticals Co., Ltd., dated 2026).

Columns and labels:
[1] = biological target: T1, human NPR1 full-length protein overexpressed on CHO-K1 cells (human, UniProt P16066 33-1061); assay: cell-based or functional assay
T1 sequence: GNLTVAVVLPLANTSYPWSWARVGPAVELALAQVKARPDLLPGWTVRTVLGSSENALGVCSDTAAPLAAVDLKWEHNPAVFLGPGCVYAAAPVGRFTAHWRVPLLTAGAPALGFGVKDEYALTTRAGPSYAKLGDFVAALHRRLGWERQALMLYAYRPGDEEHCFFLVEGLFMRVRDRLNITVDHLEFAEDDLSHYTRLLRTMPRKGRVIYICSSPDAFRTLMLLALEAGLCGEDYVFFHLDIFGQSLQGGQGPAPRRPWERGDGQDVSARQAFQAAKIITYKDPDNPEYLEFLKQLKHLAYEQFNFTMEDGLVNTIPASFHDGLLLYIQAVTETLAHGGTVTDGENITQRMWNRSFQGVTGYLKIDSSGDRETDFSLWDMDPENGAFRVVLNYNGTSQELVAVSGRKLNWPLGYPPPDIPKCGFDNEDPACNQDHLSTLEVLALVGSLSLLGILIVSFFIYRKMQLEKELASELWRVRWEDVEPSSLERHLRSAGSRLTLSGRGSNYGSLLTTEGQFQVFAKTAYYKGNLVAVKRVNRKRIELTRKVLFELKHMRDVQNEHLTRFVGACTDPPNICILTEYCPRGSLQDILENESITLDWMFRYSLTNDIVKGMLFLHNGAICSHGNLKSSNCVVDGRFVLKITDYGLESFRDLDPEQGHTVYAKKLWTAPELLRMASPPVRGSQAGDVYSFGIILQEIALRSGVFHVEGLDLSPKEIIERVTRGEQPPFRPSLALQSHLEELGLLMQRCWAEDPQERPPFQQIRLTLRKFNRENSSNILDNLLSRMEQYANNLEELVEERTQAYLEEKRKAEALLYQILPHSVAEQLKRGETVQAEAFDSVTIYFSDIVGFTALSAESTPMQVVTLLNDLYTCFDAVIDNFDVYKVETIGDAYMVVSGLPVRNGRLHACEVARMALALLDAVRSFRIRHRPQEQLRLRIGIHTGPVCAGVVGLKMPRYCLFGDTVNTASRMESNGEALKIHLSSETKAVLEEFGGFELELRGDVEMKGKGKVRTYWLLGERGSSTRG

[2] = biological target: T1, human NPR1 full-length protein …; assay: cell-based or functional assay; remark: listed apart in the source
hNPR2 = biological target: T2, hNPR2 (human, UniProt P20594 23-458, limits assumed); assay: ELISA, plate coated with 4 µg/mL antigen
T2 construct: Commercial protein; construct not described; also called hNPR2 antigen
T2 sequence (looked up): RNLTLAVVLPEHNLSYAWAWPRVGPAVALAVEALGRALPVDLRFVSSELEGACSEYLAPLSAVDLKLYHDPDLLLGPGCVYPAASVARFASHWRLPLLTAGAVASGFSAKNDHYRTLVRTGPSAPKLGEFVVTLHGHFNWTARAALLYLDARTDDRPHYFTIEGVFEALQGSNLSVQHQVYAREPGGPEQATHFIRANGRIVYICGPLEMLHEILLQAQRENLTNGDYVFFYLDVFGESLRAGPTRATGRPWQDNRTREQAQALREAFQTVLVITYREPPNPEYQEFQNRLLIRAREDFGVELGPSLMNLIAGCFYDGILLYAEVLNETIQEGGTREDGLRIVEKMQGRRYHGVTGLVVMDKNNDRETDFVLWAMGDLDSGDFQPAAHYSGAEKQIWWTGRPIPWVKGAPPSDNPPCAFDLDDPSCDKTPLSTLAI

[3] = biological target: T3, fusion protein of the human NPR1 protein extracellular domain and human-IgG1-Fc (human); assay: ELISA, plate coated with 4 µg/mL hNPR1 antigen
T3 construct: also called hNPR1-hFc; hNPR1
T3 sequence (chain, as listed by the source limits assumed): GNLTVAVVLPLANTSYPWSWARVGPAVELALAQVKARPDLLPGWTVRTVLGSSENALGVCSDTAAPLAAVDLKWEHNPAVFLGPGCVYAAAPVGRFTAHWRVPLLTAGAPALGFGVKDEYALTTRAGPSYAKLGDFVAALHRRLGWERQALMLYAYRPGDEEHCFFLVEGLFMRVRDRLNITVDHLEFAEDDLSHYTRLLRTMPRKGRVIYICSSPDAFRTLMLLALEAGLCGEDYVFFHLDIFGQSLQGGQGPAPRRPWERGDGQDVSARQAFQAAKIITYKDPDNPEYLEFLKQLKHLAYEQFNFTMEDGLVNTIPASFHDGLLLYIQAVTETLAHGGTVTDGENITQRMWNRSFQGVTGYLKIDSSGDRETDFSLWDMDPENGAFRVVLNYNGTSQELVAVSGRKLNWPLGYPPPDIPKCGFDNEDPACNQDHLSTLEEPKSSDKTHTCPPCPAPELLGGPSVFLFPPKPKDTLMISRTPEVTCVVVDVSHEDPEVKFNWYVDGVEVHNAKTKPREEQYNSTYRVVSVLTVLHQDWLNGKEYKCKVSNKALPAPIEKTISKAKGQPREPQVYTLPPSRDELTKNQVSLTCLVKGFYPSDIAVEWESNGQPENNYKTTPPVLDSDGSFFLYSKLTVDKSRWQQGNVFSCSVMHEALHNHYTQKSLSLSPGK

B1: Hu128H3L1-6 (antibody, human IgG1, kappa, L234A L235A, V domains shown)
VH: EVQLVQSGAEVKKPGASVKVSCKASGYTFTSYWMHWVRQAPGQGLEWMGRIDPNSGVTKYNEKFKSRVTLTVDKPSSPAYMELSSLRSEDTAVYYCARSSYLGRYFDVWGQGTTVTVSS
VL: EIVLTQSPATLSLSPGERATLKCSATSSVSYMYWYQQKPGQAPRLLIYDTYNLGSRIPARFSGSGSGTDYTLTISRLEPEDFAVYYCQQWSSYPPTFGQGTKLEIKR
notes: Humanized, human IgG1 LALA/kappa
[1]
  cGMP production: EC50: 7.9 nM
[2]
  Ratio (without ANP) of NPR1 antigens remaining on the cell surface after endocytosis to the initial number, 10 min, 20 µg/mL: 1.3 ratio
  Ratio (without ANP) of NPR1 antigens remaining on the cell surface after endocytosis to the initial number, 1 h, 20 µg/mL: 0.91 ratio
  Ratio (without ANP) of NPR1 antigens remaining on the cell surface after endocytosis to the initial number, 7 hrs, 20 µg/mL: 0.96 ratio
  Ratio (without ANP) of NPR1 antigens remaining on the cell surface after endocytosis to the initial number, 24 hrs, 20 µg/mL: 0.82 ratio
hNPR2
  binding result: no binding (tested: 20 µg/mL (highest concentration))
[3]
  EC50: 1.84 nM
